Assays:
[1] = target: T1, CD300a antigen (12449-H08H, Sino Biological) (UniProt Q9UGN4 18-178); assay: binding ELISA on coated antigen (8 µg/mL), HRP anti-Fc detection, 450 nm (Experimental Example 2.5)
T1 sequence (looked up): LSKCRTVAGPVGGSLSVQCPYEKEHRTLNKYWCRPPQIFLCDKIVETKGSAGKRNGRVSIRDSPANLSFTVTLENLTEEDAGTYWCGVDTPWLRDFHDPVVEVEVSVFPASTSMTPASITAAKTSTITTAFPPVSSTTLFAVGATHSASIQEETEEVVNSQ
Procedure: (§1) In order to identify that the anti-CD300c monoclonal antibody CL7 specifically binds only to CD300c without binding to other B7 family proteins, binding ELISA was performed. More specifically, each of CD300c antigen, CD300a antigen, or seven B7 family protein antigens (PD-L1 [B7-H1] (Sino Biological), ICOS Ligand[B7-H2] (Sino Biological), CD276[B7-H3] (Sino Biological), B7-H4 (Sino Biological), CD80[B7-1] (Sino Biological), CD86[B7-2] (Sino Biological), CD273[PD-L2] (Sino Biological)) in a coating buffer (0.1 M sodium carbonate, pH 9.0) was coated on an ELISA plate at a concentration of 8 μg/mL per well, and then bound to the plate by incubation at 2° C. to 8° C. overnight. The unbound antigen was removed by washing with PBST three times, and then […] of blocking buffer (5% skim milk in PBST) was added to each well. Subsequently, blocking was performed at room temperature for 1 hour, followed by washing again with PBST. Thereafter, CL7 was diluted in quadruplicate with PBS, incubated with the antigen at room temperature for 1 hour for antigen binding 1 hour later, and washed three times with PBST. Then, a secondary antibody (HRP-conjugated anti-Fc IgG) diluted to 4 μg/mL in blocking buffer was added thereto, followed by incubation at room temperature for 1 hour. Subsequently, the unbound antibody for detection was removed using PBST, and then a TMB solution was added thereto, followed by incubation for 10 minutes for development. Then, 2 N sulfuric acid solution was added to terminate the development reaction, and the absorbance was measured at 450 nm to identify the antibody specifically binding to the CD300c antigen.

[2] = target: T2, B7-H4 (Sino Biological) (UniProt Q7Z7D3 25-258, limits assumed); assay: as above
T2 sequence (looked up): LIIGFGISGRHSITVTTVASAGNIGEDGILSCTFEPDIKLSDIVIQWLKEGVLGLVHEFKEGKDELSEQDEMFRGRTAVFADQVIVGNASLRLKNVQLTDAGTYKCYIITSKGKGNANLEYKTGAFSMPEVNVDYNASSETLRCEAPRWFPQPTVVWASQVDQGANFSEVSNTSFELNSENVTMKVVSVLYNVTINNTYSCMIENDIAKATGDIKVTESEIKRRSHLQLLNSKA
Procedure: as §1

B1: CL7 (antibody, V domains shown)
VH: EVQLLESGGGLVQPGGSLRLSCAASGFTFSRYAMSWVRQAPGKGLEWVSAISGSGGSTYYADSVKGRFTISRDNSKNTLYLQMNSLRAEDTAVYYCARSSQGIFDIWGQGTLVTVSS
VL: QSVLTQPPSASGTPGQRVTISCSGNNIGTRRVHWYQQLPDTAPKLLIYSKNNRPSGVPDRFSGSKSGTSASLAISGLRSEDEADYYCAAWDDSLSGPVFGGGTKLTVL
notes: detected with anti-human IgG (H+L) and anti-Fc IgG; also called anti-CD300c monoclonal antibody CL7; anti-CD300c monoclonal antibody (CL7)
Question: Which results are given for B1?
Answer: binding result [1]: no binding (tested: log10 about 0.4 ug/ml (about 2.5 ug/ml)); binding result [2]: no binding (tested: log10 about 0.4 ug/ml (about 2.5 ug/ml))

— patent US20240254220A1 (CENTRICSBIO, published 2024)
